Data reported in paper PMC7099005, “Function-based high-throughput screening for antibody antagonists and agonists against G protein-coupled receptors” (Communications Biology, 2020).

Legend:
[1] = target: T1, human apelin receptor (APJ), wild type (Homo sapiens, UniProt P35414); experiment: cell-based or functional assay
[2] = target: T1, human apelin receptor (APJ), wild type; experiment: flow cytometry on cells; 2 x 10^5 HEK293FT cells stably expressing HA-tagged huAPJ or its mutants stained with 250 nM soluble sdAb at 4 °C for 1 h; mouse anti-his antibody and Alexa Fluor 488 goat anti-mouse; sdAb GeoMean relative to anti-HA staining, normalised to WT APJ; settings: one partner purified

T1 sequence (P35414 whole entry): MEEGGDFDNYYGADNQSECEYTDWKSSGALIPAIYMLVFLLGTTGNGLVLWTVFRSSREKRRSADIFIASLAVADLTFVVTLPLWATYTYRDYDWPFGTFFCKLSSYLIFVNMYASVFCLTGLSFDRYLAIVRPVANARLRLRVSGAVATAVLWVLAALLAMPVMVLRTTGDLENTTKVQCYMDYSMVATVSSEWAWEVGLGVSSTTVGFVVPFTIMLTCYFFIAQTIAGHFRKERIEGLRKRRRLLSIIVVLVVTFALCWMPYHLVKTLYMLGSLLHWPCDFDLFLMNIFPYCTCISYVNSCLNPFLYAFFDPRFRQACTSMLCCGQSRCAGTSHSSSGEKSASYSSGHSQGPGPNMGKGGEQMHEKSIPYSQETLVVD

IC50 of soluble sdAb in APJ PathHunter β-arrestin assay, antagonist mode (apelin 13 at EC80; blocks apelin 13 with APJ) [1] [nM]	binding result [2]	Binder
< 200	–	sdAb antagonist JN411 (VHH) VHH: HVQLVESGGGSVQAGGSLRLTCAASGLAYSRTCMGWFRQAPGKEREVVATIRRDGTTTYADSVKGRFTISRDNTRNTLALQMNSLKPEDSAMYYCAAVWVALGVPTSVCPSEYKFWGQGTLVTVSS
< 200	–	sdAb antagonist JN406 (VHH) VHH: EVQLVESGGGSVQSGGSLRLSCAASGSTYRSHCMGWFRQAPGKEREGVAIMTSRGTTYADSVKGRFTISQDNTKNIFYLQMNSLKPEDTAMYYCAAVPRAGIGDGAFCKWNMKDSGSWGQGTLVTVSS
< 200	–	sdAb antagonist JN412 (VHH) VHH: HVQLVESGGGSVQAGGSLRLSCAASGSTYRSHCMGWFRQAPGKEREGVAIMTSRGTTYADSVKGRFTISQDNTKNIFYLQMNSLKPEDTAMYYCAAVPRAGIGDGAFCKWNMKDSGSWGQGTLVTVSS
> 200	–	sdAb antagonist JN401 (VHH) VHH: HVQLVESGGGSVQSGGSLRLSCVASGITFSLYCMYWFRQAPGKEREAVASIRSTGATVYGDSVKGRFTISRDSAKNTLYLQMNSLNPEDTAMYYCAAAKKMLYGPGCGSYKDWGQGIQVTVSS
–	binds	sdAb antagonist JN404 (VHH, camelid sdAb from a camel immunised with human APJ nanodiscs; source: FreeStyle 293F, transient (pTT5), purified (Ni-NTA)) VHH: QVQLVESGGGSVQAGGSLTLSCVGSGFSWSLNCMSWFRQAPGSEREGVAIFYSETGGAYYADSVEGRFSISQVNAGNTVLLRMNSLRPEDTAMYYCAAGYGCGSTESWWTYDYIFWGQGTLVTVSS
–	binds	sdAb agonist JN300 (VHH, camelid sdAb from a camel immunised with human APJ nanodiscs; source: FreeStyle 293F, transient (pTT5), purified (Ni-NTA)) VHH: HVQLVESGGGSVQAGGSLRLSCAASGYVGSMGWFRQAPGKDREGVAAFDFDGRAKHADSVKGRFTISRDNAKNTLYLQMNNLKPEDTAMYYCARSARQLLMLSHNPSDFGYWGQGTQVTVSS
< 200	–	sdAb antagonist JN400 (VHH) VHH: QVQLVESGGGSVQSGGSLRLSCAASGSTYRSHCMGWFRQAPGKEREEVAIMTRSRGTSYADSVKGRFTISQDNTKNILYLQMNSLKPEDTAMYYCAAVPRAGIGDGGYCKWNMKDSGSWGQGTLVTVSS
< 200	–	sdAb antagonist JN413 (VHH) VHH: DVQLVESGGGSVQSGGSLRLSCAASGSTYRSHCMGWFRQAPGKEREEVAIMTRSRGTSYADSVKGRFTISQDNTKNILYLQMNSLKPEDTAMYYCAAVPRAGIGDGAYCKWNMKDSGSWGQGTLVTVSS
< 200	–	sdAb antagonist JN414 (VHH) VHH: QVQLVESGGGSVQSGGSLTLSCAASGSTYSSHCMGWFRQAPGKEREGVALMTRSRGTSYADSVKGRFTISQDNTKNILYLQMNSLKPEDTAMYYCAAVPRAGIESGAYCKWNMKDSGSWGQGTLVTVSS
< 200	–	sdAb antagonist JN402 (VHH) VHH: QVQLVESGGGSVQAGGSLRLSCAASGSTYSSHCMGWFRQAPGKEREEVALMTRARGTSYADSVKGRFTISQDNTKNILYLQMNSLKPEDTAMYYCAAVPRAGIETGAYCKWNMKDSGSWGQGTLVTVSS
> 200	–	sdAb antagonist JN409 (VHH) VHH: QVQLVESGGGSVQSGGSLRLSCAASGDTSSRSCMGWFRQAPGKEREWVGRILNAGITSYADSVKGRFTISQDNVKNTLYLQMNSLNSEDTAIYYCAAGRTSYAGSWYCRYNYWGQGTQVTVSS
